Tests used:
[1] = system: SORT1 overexpressing cells; test: Cellular uptake in Sortilin overexpressing cells (intracellular Naglu enzyme activity); assay type: cell-based; settings: absence of Neurotensin
Experimental: A cell line was established overexpressing SORT1, using standard technologies known in the art. […] After a specified period of time, the supernatant was removed and the cells were washed repeatedly. Then, cells were lysed and each sample was assayed for Naglu enzyme activity.

wild-type rats [2] = test: Naglu enzyme activity in liver and brain after intrathecal administration (biodistribution); assay type: in vivo; settings: 385 ug/animal; for Naglu enzyme activity in brain: 4 or 24 hours post dose
Experimental: (§1) To evaluate biodistribution of the SORT1-binding Naglu fusion proteins, an in vivo study was conducted using wild-type rats subjected to intrathecal administration of vehicle control (PBS), rhNaglu, Naglu-IGFII, Naglu-SPP, Naglu-SapDC or Naglu-tPRGN. Details of the experimental design are provide in Table 9 below. Previous experiments had shown that Naglu-IGFII but not rhNaglu penetrates into brain tissue and is targeted to lysosomes after intrathecal injection. Accordingly, rhNaglu and Naglu-IGFII were utilized in this study as negative and positive controls, respectively.
Rats were sacrificed either 4 or 24 hours post intrathecal administration of the respective fusion protein and total Naglu enzyme activity in the animals' liver and brain tissue was determined using a well-established enzyme activity assay (FIGS. 7A and B). Briefly, brain and liver tissue homogenates were prepared and incubated in the presence of a Naglu specific substrate, i.e., methylumbelliferyl-N-acetyl-α-D-glucosainide; accumulation of cleavage product was then measured by examining fluorescence intensity at 360/460 nm (excitation/emission) using a fluorescent plate reader.

wild-type rats [3] = test: Immunohistochemistry of Naglu protein in brain tissue after intrathecal administration; assay type: in vivo; settings: for Naglu immunostaining in cerebral cortex / brain parenchyma: 4 and 24 hours post treatment
Experimental: as §1
Rats were sacrificed either 4 or 24 hours post intrathecal administration of the respective fusion protein. Brain tissue samples were collected, fixed in 10% NBF and processed for paraffin embedding. 5 μm paraffin sections from each tissue assayed were subjected to immunostaining using an anti-human Naglu antibody.

Naglu KO mice [4] = test: Naglu enzyme activity in tissues of Naglu KO mice after intrathecal administration; assay type: in vivo; settings: 520 mg/kg brain, 24 hrs post final dose
Experimental: (§2) To evaluate the in vivo activity of Naglu-SPP and its efficacy as a therapeutic for the treatment of lysosomal storage diseases, particularly San B, Naglu-SPP was administered to Naglu KO mice via intrathecal injection. Intrathecal administration of Naglu-IGFII served as a positive control. The experimental conditions used for this assay are described in Tables 10 and 11 below.
24 hours after intrathecal administration of each respective fusion protein, Naglu KO mice were sacrificed and Naglu enzyme activity in various tissues was assayed. Total Naglu activity was evaluated using a well-established enzyme activity assay. Briefly, tissue homogenate was incubated in the presence of the Naglu specific substrate methylumbelliferyl-N-acetyl-α-D-glucosainide, and accumulation of cleavage product was measured by examining fluorescence intensity at 360/460 nm (excitation/emission) using a fluorescent plate reader. […] This increase in enzyme activity was observed over the duration of the 3 week treatment period.

Naglu KO mice [5] = test: Total glycosaminoglycan (GAG) in liver and brain, dimethylmethylene blue; assay type: in vivo; settings: intrathecal, 520 mg/kg brain; brain significant in 2× and 3× weekly groups
Experimental: as §2
The activity of Naglu-SPP and Naglu-IGFII in vivo was also evaluated by examining the intracellular accumulation of natural substrates of Naglu in treated mice. One such assay was designed to evaluate the total concentration of glycosaminoglycan (GAG) in liver (FIG. 11A) and brain (FIG. 11B) tissue of treated mice in accordance with de Jong et al. (Clin Chem 38(6):803-807, 1992). Briefly, liver tissue was homogenized and total GAG quantified using dimethylmethylene blue. Brain tissue was homogenized and then incubated with pronase and benzonase to break down protein and nucleic acid. Total GAG was then extracted by passing the brain homogenate through a DEAE column. The eluate was further buffer exchanged through a desalting column, and the total GAG content was quantified using dimethylmethylene blue. […] The reduction of total GAG amount in brain tissue was significant in the 2× weekly as well as the 3× weekly treatment groups.

Naglu KO mice [6] = test: Heparan sulfate in brain by LC/MS; assay type: in vivo; settings: intrathecal, 520 mg/kg brain, 2× weekly and 3× weekly
Experimental: as §2
In a second assay, we evaluation the total amount of heparan sulfate in the brain of treated KO mice. […] To measure heparan sulfate in mouse brain tissue, a highly sensitive LC/MS method was applied (Lawrence et al, 2012, Nat Chem Biol. 2012 Jan. 8; 8(2):197-204). Briefly, total GAG from brain tissue was extracted by a DEAE column and a desalting column, and then dried and weighted. The extracted GAG was treated with heparin lyases that specifically release unique mono, di and tri saccharides of heparan sulfate, and the sample was then analyzed by LC/MS. The released saccharides were identified and quantified using commercially available saccharide standards of heparan sulfate degradation.

Naglu KO mice [7] = test: Sanfillipo B specific biomarkers in brain by LC/MS; assay type: in vivo; settings: intrathecal, 520 mg/kg brain, especially 2× weekly and 3× weekly
Experimental: as §2
Using the same LC/MS technology as used for the quantification of heparin sulfate (see above), the presence of Sanfillipo B specific biomarkers in brains of treated KO mice were evaluated. Naglu deficiency causes the accumulation of certain heparin sulfate degradation products (presented in FIGS. 13A-C) which are natural substrates of Naglu. These biomarkers are the most relevant indications for Naglu deficiency.

Naglu KO mice [8] = test: Immunohistochemical staining of Lamp-1, GFAP and Iba-1 in brain and liver; assay type: in vivo; settings: intrathecal
Experimental: as §2
The lysosomal targeting of Naglu-SPP and Naglu-IGFII was further examined by immunohistochemical analysis. Tissue samples were collected, fixed in 10% NBF and processed for paraffin embedding. For each tissue assayed, 5 μm paraffin sections was subjected to immunostaining using antibodies against lamp lysosomal associated membrane protein 1 (Lamp-1), glial fibrillary acidic protein (GFAP) and the ionized calcium-binding adapter molecule 1 (Iba-1).

B1: Naglu-SapDC: Fusion protein of human Naglu and Prosaposin DC peptide (SapDC) via GAG3 linker; SEQ ID NO:19, SEQ ID NO:24 (protein)
chain: MEAVAVAAAVGVLLLAGAGGAAGDEAREAAAVRALVARLLGPGPAADFSVSVERALAAKPGLDTYSLGGGGAARVRVRGSTGVAAAAGLHRYLRDFCGCHVAWSGSQLRLPRPLPAVPGELTEATPNRYRYYQNVCTQSYSFVWWDWARWEREIDWMALNGINLALAWSGQEAIWQRVYLALGLTQAEINEFFTGPAFLAWGRMGNLHTWDGPLPPSWHIKQLYLQHRVLDQMRSFGMTPVLPAFAGHVPEAVTRVFPQVNVTKMGSWGHFNCSYSCSFLLAPEDPIFPIIGSLFLRELIKEFGTDHIYGADTFNEMQPPSSEPSYLAAATTAVYEAMTAVDTEAVWLLQGWLFQHQPQFWGPAQIRAVLGAVPRGRLLVLDLFAESQPVYTRTASFQGQPFIWCMLHNFGGNHGLFGALEAVNGGPEAARLFPNSTMVGTGMAPEGISQNEVVYSLMAELGWRKDPVPDLAAWVTSFAARRYGVSHPDAGAAWRLLLRSVYNCSGEACRGHNRSPLVRRPSLQMNTSIWYNRSDVFEAWRLLLTSAPSLATSPAFRYDLLDLTRQAVQELVSLYYEEARSAYLSKELASLLRAGGVLAYELLPALDEVLASDSRFLLGSWLEQARAAAVSEAEADFYEQNSRYQLTLWGPEGNILDYANKQLAGLVANYYTPRWRLFLEALVDSVAQGIPFQQHQFDKNVFQLEQAFVLSKQRYPSQPRGDTVDLAKKIFLKYYPRWVAGSWGAPGGGGGAAAAAGGGGGGAPGGGGGAAAAAGGGGGGAPGGGGGAAAAAGGGGGGAPDGGFCEVCKKLVGYLDRNLEKNSTKQEILAALEKGCSFLPDPYQKQCDQFVAEYEPVLIEILVEVMDPSFVCLKIGACPSAHKPLLGTEKCIWGPSYWCQNTETAAQCNAVEHCKRHVWN
- cellular internalization (intracellular Naglu activity) [1]: only a very limited increase
- Naglu enzyme activity in brain (wild-type rats [2]): markedly elevated levels
- Naglu immunostaining in cerebral cortex / brain parenchyma (wild-type rats [3]): little to no Naglu signal

B2: Naglu-tPRGN: Fusion protein of human Naglu and Progranulin C-terminal peptide (tPRGN) via GAG3 linker; SEQ ID NO:18, SEQ ID NO:23 (protein)
chain: MEAVAVAAAVGVLLLAGAGGAAGDEAREAAAVRALVARLLGPGPAADFSVSVERALAAKPGLDTYSLGGGGAARVRVRGSTGVAAAAGLHRYLRDFCGCHVAWSGSQLRLPRPLPAVPGELTEATPNRYRYYQNVCTQSYSFVWWDWARWEREIDWMALNGINLALAWSGQEAIWQRVYLALGLTQAEINEFFTGPAFLAWGRMGNLHTWDGPLPPSWHIKQLYLQHRVLDQMRSFGMTPVLPAFAGHVPEAVTRVFPQVNVTKMGSWGHFNCSYSCSFLLAPEDPIFPIIGSLFLRELIKEFGTDHIYGADTFNEMQPPSSEPSYLAAATTAVYEAMTAVDTEAVWLLQGWLFQHQPQFWGPAQIRAVLGAVPRGRLLVLDLFAESQPVYTRTASFQGQPFIWCMLHNFGGNHGLFGALEAVNGGPEAARLFPNSTMVGTGMAPEGISQNEVVYSLMAELGWRKDPVPDLAAWVTSFAARRYGVSHPDAGAAWRLLLRSVYNCSGEACRGHNRSPLVRRPSLQMNTSIWYNRSDVFEAWRLLLTSAPSLATSPAFRYDLLDLTRQAVQELVSLYYEEARSAYLSKELASLLRAGGVLAYELLPALDEVLASDSRFLLGSWLEQARAAAVSEAEADFYEQNSRYQLTLWGPEGNILDYANKQLAGLVANYYTPRWRLFLEALVDSVAQGIPFQQHQFDKNVFQLEQAFVLSKQRYPSQPRGDTVDLAKKIFLKYYPRWVAGSWGAPGGGGGAAAAAGGGGGGAPGGGGGAAAAAGGGGGGAPGGGGGAAAAAGGGGGGAPTKCLRREAPRWDAPLRDPALRQLL
- Bmax of binding/uptake [1]: 2060 nmol/h/mg
- cellular internalization (intracellular Naglu activity) [1]: effectively internalized
- Naglu enzyme activity in brain (wild-type rats [2]): markedly elevated levels
- Naglu immunostaining in cerebral cortex / brain parenchyma (wild-type rats [3]): little to no Naglu signal

B3: Naglu-IGFII: Fusion protein of human Naglu and IGF-II residues 8-67 via GAG3 linker; SEQ ID NO:20, SEQ ID NO:25; positive control (protein)
chain: MEAVAVAAAVGVLLLAGAGGAAGDEAREAAAVRALVARLLGPGPAADFSVSVERALAAKPGLDTYSLGGGGAARVRVRGSTGVAAAAGLHRYLRDFCGCHVAWSGSQLRLPRPLPAVPGELTEATPNRYRYYQNVCTQSYSFVWWDWARWEREIDWMALNGINLALAWSGQEAIWQRVYLALGLTQAEINEFFTGPAFLAWGRMGNLHTWDGPLPPSWHIKQLYLQHRVLDQMRSFGMTPVLPAFAGHVPEAVTRVFPQVNVTKMGSWGHFNCSYSCSFLLAPEDPIFPIIGSLFLRELIKEFGTDHIYGADTFNEMQPPSSEPSYLAAATTAVYEAMTAVDTEAVWLLQGWLFQHQPQFWGPAQIRAVLGAVPRGRLLVLDLFAESQPVYTRTASFQGQPFIWCMLHNFGGNHGLFGALEAVNGGPEAARLFPNSTMVGTGMAPEGISQNEVVYSLMAELGWRKDPVPDLAAWVTSFAARRYGVSHPDAGAAWRLLLRSVYNCSGEACRGHNRSPLVRRPSLQMNTSIWYNRSDVFEAWRLLLTSAPSLATSPAFRYDLLDLTRQAVQELVSLYYEEARSAYLSKELASLLRAGGVLAYELLPALDEVLASDSRFLLGSWLEQARAAAVSEAEADFYEQNSRYQLTLWGPEGNILDYANKQLAGLVANYYTPRWRLFLEALVDSVAQGIPFQQHQFDKNVFQLEQAFVLSKQRYPSQPRGDTVDLAKKIFLKYYPRWVAGSWGAPGGGGGAAAAAGGGGGGAPGGGGGAAAAAGGGGGGAPGGGGGAAAAAGGGGGGAPLCGGELVDTLQFVCGDRGFYFSRPASRVSRRSRGIVEECCFRSCDLALLETYCATPAKSE
notes: Fusion protein of human Naglu and IGF-II residues 8-67 via GAG3 linker; positive control
- rank of Naglu enzyme activity in brain among treatments (wild-type rats [2]): highest activity
- Naglu enzyme activity in brain (wild-type rats [2]): markedly elevated levels
- Naglu immunostaining in cerebral cortex / brain parenchyma (wild-type rats [3]): positive staining
- Naglu immunostaining in cerebellum and hippocampal region (wild-type rats [3]; 24 hours post injection): strong Naglu signal
- Naglu activity in liver and brain tissue vs vehicle control (Naglu KO mice [4]): dramatic increase
- total GAG concentration in liver and brain tissue vs vehicle control (Naglu KO mice [5]): significant reduction
- total amount of heparan sulfate accumulation in brain tissue (Naglu KO mice [6]): strong reduction
- accumulation of three GAG cleavage products (San B biomarkers) in brain (Naglu KO mice [7]): dramatic decrease
- Lamp-1 immunostaining in brain (cerebral cortex, cerebellum, thalamus, striatum, white matter) (Naglu KO mice [8]; 2× weekly and 3× weekly): decrease
- Lamp-1 immunoreactivity in liver (Naglu KO mice [8]; three weekly deliveries): reduced significantly
- GFAP staining in cerebral cortex and cerebellum (astrocytes) (Naglu KO mice [8]; three weekly injections): reduced signal
- Iba-1 staining in cerebral cortex and cerebellum (microglial cells) (Naglu KO mice [8]; three weekly injections): microglial cells had a reduced size and a reduced number of processes
